Measurements reported in the supplement of paper PMC7877785.
± gives the uncertainty stated by the source.

Assay: self-splicing fitness, log relative to wild type (ln ratio); higher = more splicing; Tetrahymena group I intron in knt gene, E. coli kanamycin selection, DiMSum; sequences stand for … in CUCUCU…GGAGGGAAAAGUUAUCAGGCAUGCACCUGGUAGCUAGUCUUUAAACCAAUAGAUUGCAUCGGUUUAAAAGGCAAGACCGUCAAAUUGCGGGAAAGGGGUCAACAGCCGUUCAGUACCAAGUCUCAGGGGAAACUUUGAGAUGGCCUUGCAAAGGGUAUGGUAAUAAGCUGACGGACAUGGUCCUAACCACGCAGCCAAGUCCUAAGUCAACAGAUCUUCUGUUGAUAUGGAUGCAGUUCACAGACUAAAUGUCGGUCGGGGAAGAUGUAUUCUUCUCAUAAGAUAUAGUCGGACCUCUCCUUAAUGGGAGCUAGCGGAUGAAGUGAUGCAACACUGGAGCCGCUGGGAACUAAUUUGUAUGCGAAAGUAUAUUGAUUAGUUUUGGAGUACUCGUGGUCG
Procedure, shortened: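 Colonies from six replicate transformations of E. coli BL21(DE3) were pooled and amplicon-sequenced on an Illumina HiSeq 2500. The library placed an intron with all eight P1ex-region nucleotides randomised inside the knt kanamycin-resistance gene on pET-22b(+), and cells grew overnight at 37°C or 30°C on LB agar with or without 25 μg/mL kanamycin (plus 100 μg/mL carbenicillin, 50 μM IPTG, 0.2% rhamnose). Fitness is the DiMSum error-weighted combination of wild-type-normalised replicate fold changes, kanamycin versus none.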

Row | Sequence | self-splicing fitness (ln) (30 °C) | self-splicing fitness (ln) (37 °C)
1 | GGCUAGCAAUAUUACGUUUA | -0.381 ± 0.15 | -0.882 ± 0.16
2 | GGGAAGCAAUAUUACGAAAU | -3.24 ± 0.19 | -2.26 ± 0.22
3 | GGGAAGCAAUAUUACGACAC | -0.539 ± 0.25 | 0.0269 ± 0.38
4 | GGGAAGCAAUAUUACGAGCU | -0.998 ± 0.29 | -0.3 ± 0.36
5 | GGGAAGCAAUAUUACGAUCA | -0.768 ± 0.33 | -0.0795 ± 0.35
6 | GGGAAGCAAUAUUACGAUGU | -1.02 ± 0.083 | -0.0643 ± 0.1
7 | GGGAAGCAAUAUUACGCCCA | -0.527 ± 0.15 | -0.717 ± 0.21
8 | GGGAAGCAAUAUUACGCGAC | -2.77 ± 0.37 | -1.5 ± 0.32
9 | GGGAAGCAAUAUUACGGAAG | -0.00595 ± 0.22 | -1.47 ± 0.39
10 | GGGAAGCAAUAUUACGGCAC | 0.0244 ± 0.3 | -0.976 ± 0.36
11 | GGGAAGCAAUAUUACGGCCG | -0.164 ± 0.12 | -0.0913 ± 0.15
12 | GGGAAGCAAUAUUACGGUAC | -1.47 ± 0.25 | -1.08 ± 0.27
13 | GGGAAGCAAUAUUACGUCGA | -0.874 ± 0.12 | -0.739 ± 0.13
14 | GGGAAGCAAUAUUACGUCGU | -0.671 ± 0.16 | -0.462 ± 0.16
15 | GGGAAGCAAUAUUACGUGAC | -1.99 ± 0.18 | 0.336 ± 0.21
16 | GGGAAGCAAUAUUACGUGUG | -1.15 ± 0.097 | -1.24 ± 0.13
17 | GGGAAGCAAUAUUACGUUUC | -3.58 ± 0.19 | -2.19 ± 0.29
18 | GGGCAGCAAUAUUACGAACC | -0.749 ± 0.29 | -0.806 ± 0.31
19 | GGGCAGCAAUAUUACGAAGU | -1.95 ± 0.14 | -0.794 ± 0.21
20 | GGGCAGCAAUAUUACGACCU | -1.88 ± 0.28 | -1.26 ± 0.44
21 | GGGCAGCAAUAUUACGAUAG | -3.54 ± 0.2 | -2.43 ± 0.22
22 | GGGCAGCAAUAUUACGCCAG | -2.02 ± 0.1 | -0.684 ± 0.13
23 | GGGCAGCAAUAUUACGCCUC |  | -1.42 ± 0.31
24 | GGGCAGCAAUAUUACGCUCA | -1.09 ± 0.094 | -0.272 ± 0.16
25 | GGGCAGCAAUAUUACGCUGU | -2.65 ± 0.29 | -1.21 ± 0.21

Row | Sequence | self-splicing fitness (ln) (30 °C) | self-splicing fitness (ln) (37 °C)
26 | GGGCAGCAAUAUUACGGCGG | -1.76 ± 0.12 | -1.99 ± 0.17
27 | GGGCAGCAAUAUUACGGGAA | -2.67 ± 0.31 | -2.7 ± 0.32
28 | GGGCAGCAAUAUUACGGUAA | -1.69 ± 0.27 | -0.663 ± 0.19
29 | GGGCAGCAAUAUUACGGUCG | -0.993 ± 0.076 | -0.0756 ± 0.12
30 | GGGCAGCAAUAUUACGGUGA | -0.844 ± 0.074 | -0.671 ± 0.088
31 | GGGCAGCAAUAUUACGGUUA | -0.537 ± 0.097 | -0.339 ± 0.089
32 | GGGCAGCAAUAUUACGGUUU | -0.465 ± 0.065 | -0.681 ± 0.071
33 | GGGCAGCAAUAUUACGUACC | -1.88 ± 0.31 | -1.39 ± 0.48
34 | GGGCAGCAAUAUUACGUCUU | -0.531 ± 0.081 | 0.0306 ± 0.098
35 | GGGCAGCAAUAUUACGUGGA | -2.81 ± 0.11 | -1.62 ± 0.099
36 | GGGCAGCAAUAUUACGUGGU | -2.88 ± 0.17 | -1.58 ± 0.13
37 | GGGCAGCAAUAUUACGUUGC | -3.77 ± 0.16 | -1.95 ± 0.19
38 | GGGCAGCAAUAUUACGUUUU | -0.77 ± 0.046 | 0.221 ± 0.063
39 | GGGGAGCAAUAUUACGAGCG | -2.37 ± 0.25 | -1.53 ± 0.22
40 | GGGGAGCAAUAUUACGAUAU | -2.95 ± 0.4 | -0.987 ± 0.24
41 | GGGGAGCAAUAUUACGCGAU |  | -0.791 ± 0.24
42 | GGGGAGCAAUAUUACGCGUA | -1.53 ± 0.38 | -1.13 ± 0.3
43 | GGGGAGCAAUAUUACGCGUU | -2.88 ± 0.13 | -1.04 ± 0.14
44 | GGGGAGCAAUAUUACGCUGC | -2.22 ± 0.45 | 
45 | GGGGAGCAAUAUUACGGACU | 0.0915 ± 0.28 | -0.621 ± 0.22
46 | GGGGAGCAAUAUUACGGCCA | -0.941 ± 0.2 | 0.555 ± 0.21
47 | GGGGAGCAAUAUUACGGGGC | -2.92 ± 0.37 | -2.2 ± 0.27
48 | GGGGAGCAAUAUUACGGUAU |  | -2.23 ± 0.39
49 | GGGGAGCAAUAUUACGGUUA | -1.34 ± 0.26 | -2.75 ± 0.31
50 | GGGGAGCAAUAUUACGUACA | -1.75 ± 0.2 | -1.76 ± 0.49

Row | Sequence | self-splicing fitness (ln) (30 °C) | self-splicing fitness (ln) (37 °C)
51 | GGGGAGCAAUAUUACGUCGG |  | -1.07 ± 0.36
52 | GGGGAGCAAUAUUACGUGCA | -3.32 ± 0.25 | -1.08 ± 0.17
53 | GGGGAGCAAUAUUACGUGCG | -1.61 ± 0.14 | -1.54 ± 0.27
54 | GGGGAGCAAUAUUACGUUCU | -2.67 ± 0.43 | -0.226 ± 0.35
55 | GGGUAGCAAUAUUACGAACA |  | -0.706 ± 0.39
56 | GGGUAGCAAUAUUACGACUG | 0.0705 ± 0.13 | 0.222 ± 0.18
57 | GGGUAGCAAUAUUACGACUU | -1.03 ± 0.13 | 0.345 ± 0.16
58 | GGGUAGCAAUAUUACGCACU | -3.8 ± 0.47 | -0.577 ± 0.29
59 | GGGUAGCAAUAUUACGCCAA | -0.499 ± 0.16 | -0.0896 ± 0.15
60 | GGGUAGCAAUAUUACGCGGU | -3.15 ± 0.21 | -1.4 ± 0.2
61 | GGGUAGCAAUAUUACGCUAG |  | -1.24 ± 0.26
62 | GGGUAGCAAUAUUACGGAAG | -3.46 ± 0.35 | -1.87 ± 0.45
63 | GGGUAGCAAUAUUACGGCGG | -2.35 ± 0.24 | -2.12 ± 0.28
64 | GGGUAGCAAUAUUACGGCGU | -0.56 ± 0.13 | -0.386 ± 0.12
65 | GGGUAGCAAUAUUACGGGGG | -2.97 ± 0.24 | -2.09 ± 0.25
66 | GGGUAGCAAUAUUACGGUAA | -1.28 ± 0.12 | -0.587 ± 0.1
67 | GGGUAGCAAUAUUACGGUAC | -2.04 ± 0.12 | -0.23 ± 0.15
68 | GGGUAGCAAUAUUACGGUGA | -1.74 ± 0.19 | 0.155 ± 0.16
69 | GGGUAGCAAUAUUACGUAAC | -1.07 ± 0.15 | -0.795 ± 0.22
70 | GGGUAGCAAUAUUACGUCAU | -0.733 ± 0.07 | -0.742 ± 0.081
71 | GGGUAGCAAUAUUACGUCCC | -0.987 ± 0.29 | 
72 | GGGUAGCAAUAUUACGUGAU | -2.64 ± 0.19 | -0.239 ± 0.18
73 | GGGUAGCAAUAUUACGUUGA | -2.44 ± 0.16 | -0.495 ± 0.11
74 | GGUAAGCAAUAUUACGAAAG | -3.68 ± 0.47 | 
75 | GGUAAGCAAUAUUACGAAUA | -1.25 ± 0.26 | -0.561 ± 0.27

Row | Sequence | self-splicing fitness (ln) (30 °C) | self-splicing fitness (ln) (37 °C)
76 | GGUAAGCAAUAUUACGACAC | -0.00191 ± 0.13 | 0.285 ± 0.19
77 | GGUAAGCAAUAUUACGAGAC | -1.71 ± 0.39 | -0.652 ± 0.27
78 | GGUAAGCAAUAUUACGAUUA | -0.734 ± 0.094 | -0.221 ± 0.11
79 | GGUAAGCAAUAUUACGCUCU | -3.29 ± 0.32 | -2.16 ± 0.35
80 | GGUAAGCAAUAUUACGGAAC | -1.55 ± 0.17 | -0.543 ± 0.21
81 | GGUAAGCAAUAUUACGGACA | -0.53 ± 0.13 | -0.0615 ± 0.15
82 | GGUAAGCAAUAUUACGGCAG | -3.62 ± 0.43 | -2.49 ± 0.45
83 | GGUAAGCAAUAUUACGGUCA | -0.727 ± 0.1 | 0.416 ± 0.11
84 | GGUAAGCAAUAUUACGGUUC | -0.52 ± 0.16 | -0.621 ± 0.17
85 | GGUAAGCAAUAUUACGUCUU | -0.148 ± 0.1 | -0.802 ± 0.12
86 | GGUAAGCAAUAUUACGUUAG | -3.15 ± 0.18 | -1.72 ± 0.19
87 | GGUCAGCAAUAUUACGAAGC | -0.892 ± 0.11 | -0.0665 ± 0.13
88 | GGUCAGCAAUAUUACGACGC | -0.817 ± 0.13 | -0.318 ± 0.18
89 | GGUCAGCAAUAUUACGAGCG | 0.269 ± 0.081 | -0.0123 ± 0.094
90 | GGUCAGCAAUAUUACGAGGG |  | -2.35 ± 0.25
91 | GGUCAGCAAUAUUACGAGUG | -2.56 ± 0.1 | -1.44 ± 0.11
92 | GGUCAGCAAUAUUACGAUUU | 0.377 ± 0.062 | 0.21 ± 0.088
93 | GGUCAGCAAUAUUACGCAGG |  | -3.55 ± 0.3
94 | GGUCAGCAAUAUUACGCCGU | -2.61 ± 0.16 | -0.39 ± 0.15
95 | GGUCAGCAAUAUUACGCUAG | -3.43 ± 0.26 | -2.91 ± 0.34
96 | GGUCAGCAAUAUUACGCUCA | -1.15 ± 0.12 | -0.0519 ± 0.17
97 | GGUCAGCAAUAUUACGGACA | -0.754 ± 0.19 | -0.179 ± 0.17
98 | GGUCAGCAAUAUUACGGGUC | -1.54 ± 0.13 | -1.58 ± 0.16
